Assay results: patent US20260008856A1, “METHODS OF TREATING DISEASE USING ANTI-IL1RAP ANTIBODIES AND ANTIBODY DRUG CONJUGATES” (Bluefin Biomedicine, Inc., priority 2022, published 2026)

Tests used:
EOL-1 = assay: Flow cytometry binding to endogenous cell line EOL-1; assay type: cell-based, human; design: key to binding to EOL-1 by flow cytometry: (−): No binding; (+): Weak binding; (++): Moderate binding; (+++): Strong binding; conditions: for binding to EOL-1 by flow cytometry: primary antibody 1 ug/ml
Description: (§1) Staining for flow cytometry was performed in 1× cold PBS with 0.5% BSA. Primary antibodies (1 ug/ml) were incubated with live cells on ice for 30 minutes, after a brief wash, cells were incubated with Alexa Fluro® 488-conjugated anti-human IgG secondary antibody @1:1000 (709-546-149, Jackson ImmunoResearch). Acquisition of the data was performed on a MACSQuant® Flow Cytometers (Miltenyi Biotec) and analyzed with FlowJo software.
(§2) Over 1,000 hits were identified that bind strongly to CHO-human IL1RAP, but not parental CHO cells. 68 clones were selected for molecular cloning. Based on unique CDR3 sequences from the heavy chain variable domain, 35 antibodies from 13 families were confirmed by binding in IL1RAP positive cell lines EOL1 and Karpas 299 (see Table 8) by flow cytometry (MACSQuant® www.miltenybiotec.com).

Karpas 299 = assay: Flow cytometry binding to endogenous cell line Karpas 299; assay type: cell-based, human; design: key to binding to Karpas 299 by flow cytometry: (−): No binding; (+): Weak binding; (++): Moderate binding; (+++): Strong binding; conditions: for binding to Karpas 299 by flow cytometry: primary antibody 1 ug/ml
Description: as §1, §2

DMS79 = assay: Flow cytometry binding to endogenous cell line DMS79; assay type: cell-based; design: key to binding to DMS79 by flow cytometry: (−): No binding; (+): Weak binding; (++): Moderate binding; (+++): Strong binding
Description: as §1

H69 = assay: Flow cytometry binding to endogenous cell line H69; assay type: cell-based; design: key: (−): No binding; (+): Weak binding; (++): Moderate binding; (+++): Strong binding; conditions: primary antibody 1 ug/ml
Description: as §1

recombinant human IL1RAP = biological target: T1, recombinant human IL1RAP (Homo sapiens, UniProt Q9NPH3); assay: Binding competition binning on Octet; conditions: Protein A biosensors
T1 construct: MBP-IL1RAP(S21-T367)-; 8xHis (C); made in house; host or cells: CHO (ExpiCHO transient expression)
Description: Binding Competition binning: Binding competition among different antibodies was determined using a real-time, interferometry assay on an Octet Red™ instrument with Protein A-conjugated biosensors. To assess whether two antibodies competed for binding to a recombinant IL1RAP protein, the assay was performed as follows. Protein A biosensors were first submerged into wells containing 10 ug/mL of individual monoclonal antibodies for 5 minutes. Following the capture step, the biosensors were dipped briefly (15 seconds) into buffer and then any unoccupied sites on the biosensor were saturated by submerging them for 5 minutes into wells containing 100 ug/mL of an irrelevant monoclonal antibody. The Octet™ biosensors were then dipped briefly (15 seconds) in buffer before immersion for 1 minute into wells containing recombinant IL1RAP. The biosensors were dipped briefly (15 seconds) in buffer before immersion for 1 minute into wells containing a second recombinant antibody.
For the control case where the second antibody was the same as the first, there was no increase in signal, because there was no additional binding to the recombinant target.
For the control case where buffer was used instead of the first antibody, no recombinant target bound the non-quenching antibody on the biosensor and no second antibody bound the biosensor.
Selected antibodies were evaluated in pairs for their ability to simultaneously bind recombinant human IL1RAP. The analysis was performed by Octet™ loaded with Protein A Biosensors. A total of five different bins were determined as follows.

IL-1β signaling = assay: IL-1 signaling reporter cell assay (HEK-Blue IL-1β cells), IL-1β; assay type: cell-based
Description: (§3) HEK-Blue IL-1β cells (Invivogen, CA) were harvested and plated in technical duplicates at a density of 50,000 cells per well in a 96-well plate. IL1RAP antibodies, or a corresponding human IgG1 control antibody was added to the wells in a concentration range of […]. After incubating cells with antibodies for 30 minutes, IL-1β was added to a final concentration of 0.5 ng/ml, and the plate was incubated overnight. To examine whether any of the antibodies were able to induce IL-1R activation in the absence of IL-1β, samples were incubated with 10 μg/mL antibody without addition of the ligand. The following day, substrate was added to the supernatants, and samples were analyzed for absorbance at 620 nm.

IL-1α signaling = assay: IL-1 signaling reporter cell assay, IL-1α; assay type: cell-based; conditions: serial dilution of antibody
Description: as §3
In addition, serial dilution of IL1RAP antibodies was performed to determine EC50 against IL-1β and IL-1α (FIGS. 6B and 6C). Many of these antibodies, including 37E10_15B5 and 44E5_15C5 can block IL-1β and IL-1α signaling with subnanomolar EC50.

IL-33 signaling = IL-33 signaling reporter cell assay (HEK-Blue IL-33 cells); assay type: cell-based; conditions: antibody 1-10 μg/ml, IL-33 0.5 ng/ml
Description: FIGS. 7A and 7B show blockage of IL-33 signaling by anti-IL1RAP antibodies. HEK-Blue IL-33 cells (Invivogen, CA) were harvested and plated in technical duplicates at a density of 50,000 cells per well in a 96-well plate. Antibodies, or a corresponding human IgG1 control antibody, was added to the wells in a serial dilution starting at 10 μg/ml (FIG. 7A), or a concentration of 1 and 10 μg/ml (FIG. 7B). After incubating cells with antibodies for 30 minutes, IL-33 was added to a final concentration of 0.5 ng/ml, and the plate was incubated overnight. 24 hours later, substrate was added to the supernatants, and samples were analyzed for absorbance at 620 nm. CBIgG1 (anti-hen egg lysozyme antibody, CrownBio™) was included as a negative control.
as §3, with “IL-33” for “IL-1β”, “plate.” for “plate. IL1RAP”, “ST2” for “IL-1R”, “IL-33,” for “IL-1β,”

MOLT3 = assay: Flow cytometry binding to endogenous cell line MOLT3; assay type: cell-based; design: key: (−): No binding; (+): Weak binding; (++): Moderate binding; (+++): Strong binding; conditions: primary antibody 1 ug/ml
Description: as §1

rat IL1RAP = biological target: T2, rat IL1RAP (Rattus norvegicus, UniProt Q63621); assay: Flow cytometry binding to 293 cells expressing rat IL1RAP; assay type: cell-based; conditions: 1 ug/ml
T2 construct: Met1-Val570; host or cells: HEK-293T
Description: (§4) 293T cell line was purchased from American Type Culture Collection (ATCC). 293T cells expressing human, Macaca fascicularis, rat, and mouse IL1RAP were maintained in DMEM medium (Invitrogen) with 10% fetal bovine serum (FBS) (Sigma) in the presence of 2 ug/ml puromycin (Invitrogen).
as §1

[1] = tested on: TARC level in PBMCs stimulated with HDM and IL-13; assay: TARC level in PBMCs treated by HDM and IL-13; assay type: cell-based, human; conditions: HDM 10 ug/ml, IL-13 0.5 nM; tralokinumab 10 to 0.16 ug/ml; BFB759 1 ug/ml in combination
Description: 0.2 million PBMCs in 100 ul medium (RPMI1640, 10% heat-inactivated FBS) were added to each well of 96 well cell culture plate. BFB759 at multiple concentrations in 50 ul medium was added to the wells. The cells were incubated in the incubator for 45 min. Then, 50 ul HDM solution (final concentration 10 ug/ml) was added to the wells. After 7 days incubation, the supernatant was transferred to a new 96 well plate, and used in TARC ELISA right away, or frozen in −80 C freezer for ELISA later. For the combination studies of BFB759 with other drugs, the single agent or combination of drugs were added to the PBMCs, incubated for 45 min, then HDM solution, or HDM and IL-4 or IL-13 solution were added to the wells. The assay was incubated for 7 days, and the supernatant was harvested for TARC ELISA.
In the data shown in FIG. 16, HDM was used at 10 ug/ml, IL-13 was used at 0.5 nM, BFB759 was used at 1 ug/ml, tralokinumab was titrated from 10 ug/ml to 0.16 ug/ml (4 fold dilution, 4 series). Data shown are mean±s.d.

mouse IL1RAP = biological target: T3, mouse IL1RAP (Mus musculus, UniProt Q61730); assay: Flow cytometry binding to 293 cells expressing mouse IL1RAP; assay type: cell-based; conditions: 1 ug/ml
T3 construct: Met1-Val570; host or cells: HEK-293T
Description: as §4, §1

T2 sequence (Q63621 21-570): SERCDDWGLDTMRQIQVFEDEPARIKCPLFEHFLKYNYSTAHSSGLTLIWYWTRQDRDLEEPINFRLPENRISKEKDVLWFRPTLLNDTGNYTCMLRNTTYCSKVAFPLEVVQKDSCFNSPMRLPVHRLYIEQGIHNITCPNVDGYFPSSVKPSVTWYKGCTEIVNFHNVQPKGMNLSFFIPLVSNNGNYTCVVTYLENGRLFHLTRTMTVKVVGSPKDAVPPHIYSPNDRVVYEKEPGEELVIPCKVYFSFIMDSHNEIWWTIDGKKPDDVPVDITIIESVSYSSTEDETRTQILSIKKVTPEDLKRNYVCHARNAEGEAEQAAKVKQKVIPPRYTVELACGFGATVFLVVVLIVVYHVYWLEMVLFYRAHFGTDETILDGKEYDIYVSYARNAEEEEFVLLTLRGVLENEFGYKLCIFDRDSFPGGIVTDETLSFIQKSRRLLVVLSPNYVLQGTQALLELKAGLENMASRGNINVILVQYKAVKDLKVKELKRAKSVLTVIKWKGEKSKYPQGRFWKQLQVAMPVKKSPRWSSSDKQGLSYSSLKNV
T3 sequence (Q61730 21-570): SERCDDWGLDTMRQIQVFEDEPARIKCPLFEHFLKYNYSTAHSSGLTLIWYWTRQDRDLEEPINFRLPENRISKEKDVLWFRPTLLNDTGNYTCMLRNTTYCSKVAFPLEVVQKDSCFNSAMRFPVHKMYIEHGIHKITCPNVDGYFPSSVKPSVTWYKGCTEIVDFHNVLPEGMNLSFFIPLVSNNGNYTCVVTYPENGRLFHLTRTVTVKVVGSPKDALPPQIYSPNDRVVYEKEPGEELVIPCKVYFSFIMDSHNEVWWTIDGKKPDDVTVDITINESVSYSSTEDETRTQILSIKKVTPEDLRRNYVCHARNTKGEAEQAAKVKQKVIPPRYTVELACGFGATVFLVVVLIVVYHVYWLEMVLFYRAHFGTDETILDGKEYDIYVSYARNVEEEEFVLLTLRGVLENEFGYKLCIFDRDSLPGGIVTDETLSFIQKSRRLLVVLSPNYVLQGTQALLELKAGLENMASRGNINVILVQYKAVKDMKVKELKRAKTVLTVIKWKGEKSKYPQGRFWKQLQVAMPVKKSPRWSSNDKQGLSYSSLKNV

B1: 44E5_15C5: human anti-IL1RAP antibody, VH SEQ ID NO: 71, VL SEQ ID NO: 73 (antibody, V domains shown)
VH: QVQLVESGGGVVQPGRSLRLSCAASGFTFRSHGMHWVRQAPGKGLEWVAVIWYDGSSDYYADSVKGRFTISRDNSKNTLFLQMNSLSAEDTAVYYCARENVYGSGWFFDYWGQGTLVTVSS
VL: EIVMTQSPATLSVSPGERASLSCRASQSVGSNLAWYQQKPGQAPRLLIFGASTRATGIPARFSGSRSGTEFTLTISSLQSEDFALYYCQQYNNWPPWTFGQGTKLEIK
binding to IL1RAP positive cell line EOL1 (EOL-1; flow cytometry, FIG. 2): specific binding | binding to EOL-1 by flow cytometry (EOL-1): (+++) | binding to IL1RAP positive cell line Karpas 299 (Karpas 299; flow cytometry, FIG. 2): specific binding | binding to IL1RAP negative cell line DMS79 (DMS79; flow cytometry, FIG. 2): lack of binding | binding to H69 by flow cytometry (H69): (−) | competition for binding, bin (2) (recombinant human IL1RAP): competed with each other | inhibition of IL1R1 / IL-1 signaling (IL-1β signaling; HEK-Blue IL-1β cells, antibody 1-10 pg/ml, IL-1β 0.5 ng/ml): potent inhibition | EC50 against IL-1β (IL-1β signaling; serial dilution of antibody, reporter assay): subnanomolar | EC50 against IL-1α (IL-1α signaling): subnanomolar | inhibition of IL-33 signaling (IL-33 signaling): partially inhibit

B2: 34C11_21B2: human anti-IL1RAP antibody, VH SEQ ID NO: 40, VL SEQ ID NO: 44 (antibody, V domains shown)
VH: EVQVVESGGGLVQPGGSLRLSCAASGFTFRSYWMSWVRQAPGKGLEWVANIKQDGSERHYVDSVKGRFTISRDNAKTSLYLQMSSLRAEDTAVYYCAREGYFGSGYFDYWGQGTLVTVSS
VL: DIQMTQSPSTLSASVGDRVIITCRASQSISRGLAWYQQKPGKAPKLLIYKASNLESGVPSRFSGSGSGTEFTLTISSLQPDDFAAYYCQQYSYYSHTFGQGTKLEIK
binding to EOL-1 by flow cytometry (EOL-1): (+++) | binding to Karpas 299 by flow cytometry (Karpas 299): (+++) | binding to MOLT3 by flow cytometry (MOLT3): (+) | competition for binding, bin (1) (recombinant human IL1RAP): competed with each other | binding to 293 cells expressing rat IL1RAP (rat IL1RAP): bind

B3: 38G11_28A2: human anti-IL1RAP antibody, VH SEQ ID NO: 151, VL SEQ ID NO: 154 (antibody, V domains shown)
VH: EVQLVESGGGLVQPGGSLRLSCAASGFTFSSYWMSWVRQAPGKGLEWVANIKQDGSEKHYVDSVKGRFTISRDNAKNSLYLQMNSLRAEDTAVYYCAREGYFGSGYFDYWGQGTLVTVSS
VL: DIQLTQSPSFLSASVGDRVTITCRASQGISSYLAWYQQKPGKAPKLLIYAASTLQSGVPSRFSGSGSGTEFTLTISSLQPEDFATYYCQQYSFYSHTFGQGTKLEIK
binding to EOL-1 by flow cytometry (EOL-1): (++) | binding to Karpas 299 by flow cytometry (Karpas 299): (++) | binding to DMS79 by flow cytometry (DMS79; primary antibody 1 ug/ml): (−)

B4: tralokinumab: IL-13 neutralizing antibody, produced by Bluefin Biomedicine according to the published protein sequence (antibody, chains of the INN, looked up, V domains shown)
VH: QVQLVQSGAEVKKPGASVKVSCKASGYTFTNYGLSWVRQAPGQGLEWMGWISANNGDTNYGQEFQGRVTMTTDTSTSTAYMELRSLRSDDTAVYYCARDSSSSWARWFFDLWGRGTLVTVSS
VL: SYVLTQPPSVSVAPGKTARITCGGNIIGSKLVHWYQQKPGQAPVLVIYDDGDRPSGIPERFSGSNSGNTATLTISRVEAGDEADYYCQVWDTGSDPVVFGGGTKLTVL
inhibition of TARC level in HDM and IL-13 stimulated cells [1]: dose dependent inhibition

B5: 24G3_17C5: human anti-IL1RAP antibody, VH SEQ ID NO: 90, VL SEQ ID NO: 93 (antibody, V domains shown)
VH: EVQLLESGGGLVQRGGSLRLSCAASGFTFSSYAMSWVRQAPGKGLEWVSSISGSGDSTNYADSVKGRFTISRDNSKNTLHLQMNSLRAEDTAVYYCVRDYYYGMDVWGHGTTVTVSS
VL: EIVLTQSPATLSLSPGERATLSCRASQSVNSYLAWYQQKPGQAPRLLIYDASNRATGIPARFSGSGSGTDFTLTISSLEPEDFAVYYCQQRSYWPITFGQGTRLEIK
binding to EOL-1 by flow cytometry (EOL-1): (++) | binding to Karpas 299 by flow cytometry (Karpas 299): (++) | competition for binding, bin (1) (recombinant human IL1RAP): competed with each other | binding to 293 cells expressing rat IL1RAP (rat IL1RAP): bind | binding to 293 cells expressing mouse IL1RAP (mouse IL1RAP): bind weakly
